Laboratory results as given in PMC4405695, “The Rab6-regulated KIF1C kinesin motor domain contributes to Golgi organization” (eLife, 2015).

Columns and labels:
[1] = target: T1, Paclitaxel stabilized pre-polymerized microtubules (UniProt Q71U36 1-451; P07437 1-444, Paclitaxel-stabilized polymer, polymerized with GTP. One alpha/beta heterodimer represents the repeating unit. Source and isotypes are not given; mammalian (likely porcine) brain tubulin, a natural); assay: co-sedimentation; KIF1C-355-His (160 nM) with His-Rab6A Q72L, His-Rab33 or BSA (3.42 µM), then increasing microtubules, 2.6 mM ADP, 0.35 mM GTPγS; BRB80; settings: both partners purified
[2] = target: T1, Paclitaxel stabilized pre-polymerized …; assay: co-sedimentation; KIF1C-355-His (80 nM) with His-Rab6A Q72L (4.86 µM) or BSA (7.6 µM), then increasing microtubules, 2.6 mM AMP-PNP, 0.35 mM GTPγS; BRB80; settings: both partners purified
myc-KIF1C-350 = target: T2, myc-KIF1C-350 (human, UniProt O43896 1-350); assay: pull-down; concentration dependence: in vitro translated myc-KIF1C-350 with GTPγS-loaded GST-Rab6A Q72L; apparent KD; fit with KaleidaGraph; settings: one partner purified
T2 construct: KIF1C, human, N-terminal motor domain, residues 1-350; also called myc-KIF1C motor domain; in vitro translated KIF1C motor domain; source: in vitro translated
T2 sequence (looked up): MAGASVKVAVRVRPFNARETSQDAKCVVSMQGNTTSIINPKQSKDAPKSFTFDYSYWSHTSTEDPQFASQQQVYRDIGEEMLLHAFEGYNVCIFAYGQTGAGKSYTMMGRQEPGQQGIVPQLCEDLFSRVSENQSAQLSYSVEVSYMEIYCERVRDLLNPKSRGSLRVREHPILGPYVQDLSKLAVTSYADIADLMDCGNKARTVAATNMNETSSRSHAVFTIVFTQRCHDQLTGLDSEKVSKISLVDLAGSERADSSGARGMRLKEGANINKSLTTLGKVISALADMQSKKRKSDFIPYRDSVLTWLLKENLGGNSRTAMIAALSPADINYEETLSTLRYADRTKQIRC

His-Rab6A Q72L = target: T3, His-Rab6A Q72L (UniProt P20340 1-208, Q72L); assay: pull-down; concentration dependence: GTPγS-loaded His-Rab6A Q72L (0.58 μM) with GST-KIF1C CBD immobilized on glutathione Sepharose; quantitative fluorescent antibody immunoblot; fit with GraphPad Prism; settings: both partners purified
T3 construct: Rab6A GTPase, GTP-hydrolysis deficient mutant; also called active His-Rab6A; source: purified as described (Aivazian et al., 2006)

B1: KIF1C-355-His (domain or fragment)
chain: MAGASVKVAVRVRPFNARETSQDAKCVVSMQGNTTSIINPKQSKDAPKSFTFDYSYWSHTSTEDPQFASQQQVYRDIGEEMLLHAFEGYNVCIFAYGQTGAGKSYTMMGRQEPGQQGIVPQLCEDLFSRVSENQSAQLSYSVEVSYMEIYCERVRDLLNPKSRGSLRVREHPILGPYVQDLSKLAVTSYADIADLMDCGNKARTVAATNMNETSSRSHAVFTIVFTQRCHDQLTGLDSEKVSKISLVDLAGSERADSSGARGMRLKEGANINKSLTTLGKVISALADMQSKKRKSDFIPYRDSVLTWLLKENLGGNSRTAMIAALSPADINYEETLSTLRYADRTKQIRNTVSVN
notes: KIF1C, human, motor domain residues 1-349; KIF5C heavy chain, murine, residues 329-334; Design follows Nitta et al., 2004 for KIF1A; also called recombinant KIF1C motor domain; purified KIF1C motor domain; source: E. coli Rosetta 2, purified (Ni-NTA, HiTrap Q FF); not shown: His6, C-terminal, kept
[1]
  Kd: 2100 nM
  fold increase of KD with His-Rab6A (ADP state): > 10 fold
[2]
  Kd: 460 nM
  fold increase of KD with His-Rab6A (AMP-PNP state): > 10 fold

B2: GST-Rab6A Q72L (natural protein, UniProt P20340 1-208, looked up)
chain: MSTGGDFGNPLRKFKLVFLGEQSVGKTSLITRFMYDSFDNTYQATIGIDFLSKTMYLEDRTVRLQLWDTAGLERFRSLIPSYIRDSTVAVVVYDITNVNSFQQTTKWIDDVRTERGSDVIIMLVGNKTDLADKRQVSIEEGERKAKELNVMFIETSAKAGYNVKQLFRRVAAALPGMESTQDRSREDMIDIKLEKPQEQPVSEGGCSC
notes: Rab6A GTPase, GTP-hydrolysis deficient mutant; GTPγS-loaded; also called active Rab6A hydrolysis-deficient mutant; source: purified as described (Aivazian et al., 2006)
myc-KIF1C-350
  Kd: 230 nM

B3: GST-KIF1C CBD (domain or fragment, human, UniProt O43896 1060-1103, looked up)
chain: SYPQPPQPYPAQRPPGPRYPPYTTPPRMRRQRSAPDLKESGAAV
notes: the text calls it the C-terminal 40 amino acids; Text says 40 C-terminal residues, the legend AA 1060-1103 (44 residues); source: bacteria, purified (glutathione-Sepharose)
His-Rab6A Q72L
  Kd: 900 nM
